Data reported in the supplement of paper PMC10126150.
± gives the standard deviation of the averaged measurements.

test system: ATP; assay: switch fluorescence ratio, 500 uM ATP over buffer (Cy3 cluster intensity, sum of 5 cycles each) (fold (ratio)); higher = stronger signal-on switching upon ATP binding; sequences stand for … in TCGTCGGCAGCGTCAGATGTGTATAAGAGACAGTTTTTTTTTTTTTTTTTTTTTTTTT…TC; conditions: aptamer strand: ATP DNA aptamer (quencher-CACCTGGGGGAGTATTGCGGAGGAAGG + anchor), 100 nM annealed; ATP concentration: 500 uM
Method in brief: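 Exposure to 500 uM ATP lasted 15 min at 22 °C before imaging, and a selection-buffer image was taken beforehand, for Cy3-labelled switching-strand clusters on a modified Illumina MiSeq flow-cell annealed to 100 nM quencher-labelled ATP aptamer. Five buffer/ATP cycles were run with NaOH stripping and re-annealing between them. The fluorescence ratio per cluster is summed target-cycle over summed buffer-cycle Cy3 intensity, averaged per switch-domain sequence. Clusters outside 100-1000 RFU were excluded.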

TTTACTGGCT and TTTAGAACGA are within error of each other in switch fluorescence ratio: 1.02 ± 0.0011 for the first, 1.01 ± 0.025 for the second.

TTTAGAATTT and TTTAGACTGG are within error of each other in switch fluorescence ratio: 1.01 ± 0.019 for the first, 1 ± 0.022 for the second.

TTTAGAGCTT and TTTAGATAAA are the same in switch fluorescence ratio: 1.02 ± 0.024 for the first, 1.02 ± 0.017 for the second.

Compared with TTTAGATATT, TTTAGATCAA is higher in switch fluorescence ratio: 0.98873 ± 0.00041 for the first, 1 ± 0.0019 for the second.

TTTAGATGCT and TTTAGATTCA are within error of each other in switch fluorescence ratio: 1.03 ± 0.099 for the first, 1.001 ± 0.0043 for the second.

TTTAGCATGT and TTTAGCCGGG are within error of each other in switch fluorescence ratio: 1.04 ± 0.073 for the first, 0.985 ± 0.014 for the second.

TTTAGCCTCG and TTTAGCGGGG are within error of each other in switch fluorescence ratio: 0.992 ± 0.046 for the first, 1.01 ± 0.016 for the second.

TTTAGCTGCC and TTTAGCTTCA are within error of each other in switch fluorescence ratio: 1.16 ± 0.064 for the first, 1.099 ± 0.0078 for the second.

Going from TTTAGCTTTA to TTTAGCTTTT, the switch fluorescence ratio rises from 0.9735 ± 0.0092 to 1.04 ± 0.01.

TTTAGGATCT and TTTAGGCAAA are within error of each other in switch fluorescence ratio: 0.954 ± 0.017 for the first, 1.05 ± 0.12 for the second.

TTTAGGCCCA and TTTAGGCGTT are within error of each other in switch fluorescence ratio: 1.03 ± 0.041 for the first, 1.01 ± 0.057 for the second.

TTTAGGCTTG and TTTAGGGGGC are within error of each other in switch fluorescence ratio: 1.02 ± 0.017 for the first, 1.03 ± 0.032 for the second.

TTTAGGGGTT and TTTAGGGTAT are within error of each other in switch fluorescence ratio: 1.02 ± 0.083 for the first, 1.012 ± 0.0069 for the second.

TTTAGGTGGC and TTTAGTAAAC are within error of each other in switch fluorescence ratio: 1.02 ± 0.009 for the first, 1.08 ± 0.11 for the second.

TTTAGTGCTT and TTTAGTTACG are within error of each other in switch fluorescence ratio: 0.997 ± 0.03 for the first, 0.987 ± 0.013 for the second.

Compared with TTTAGTTACT, TTTAGTTGAA is lower in switch fluorescence ratio: 1.06 ± 0.022 for the first, 0.988 ± 0.023 for the second.

TTTAGTTTGT and TTTATAAAGA are within error of each other in switch fluorescence ratio: 0.99 ± 0.036 for the first, 1.02 ± 0.059 for the second.

First: TTTATAAAGT
Second: TTTATAAGTA
The switch fluorescence ratio of the first is lower: 0.958 ± 0.032 for the first, 1.02 ± 0.026 for the second.

Compared with TTTATAAGTT, TTTATAATCT is higher in switch fluorescence ratio: 0.986 ± 0.023 for the first, 1.05 ± 0.019 for the second.

TTTATACGTT and TTTATACTTT are within error of each other in switch fluorescence ratio: 1.01 ± 0.044 for the first, 1.06 ± 0.1 for the second.

TTTATAGACT and TTTATAGGAA are the same in switch fluorescence ratio: 1.02 ± 0.0016 for the first, 1.02 ± 0.03 for the second.

TTTATAGTGC and TTTATATAGA are within error of each other in switch fluorescence ratio: 1.01 ± 0.027 for the first, 0.996 ± 0.033 for the second.

First: TTTATATGGT
Second: TTTATATTGG
The switch fluorescence ratio of the first is lower: 0.988 ± 0.028 for the first, 1.034 ± 0.00088 for the second.

Going from TTTATCAGAC to TTTATCATTG, the switch fluorescence ratio falls from 1.07 ± 0.059 to 0.9909 ± 0.0086.

TTTATGAAAT and TTTATGCCGT are within error of each other in switch fluorescence ratio: 1.12 ± 0.19 for the first, 0.9505 ± 0.0022 for the second.

TTTATGCTTT and TTTATGGAGT are within error of each other in switch fluorescence ratio: 1.01 ± 0.024 for the first, 1.024 ± 0.0018 for the second.

TTTATGGGTG and TTTATGTCTG are the same in switch fluorescence ratio: 1.01 ± 0.016 for the first, 1.01 ± 0.039 for the second.

TTTATGTTAT and TTTATGTTGG are within error of each other in switch fluorescence ratio: 1.1 ± 0.097 for the first, 0.979 ± 0.036 for the second.

TTTATGTTTC and TTTATTAATG are within error of each other in switch fluorescence ratio: 0.98 ± 0.025 for the first, 1.01 ± 0.026 for the second.

TTTATTACTT and TTTATTATAT are within error of each other in switch fluorescence ratio: 1 ± 0.029 for the first, 1.01 ± 0.031 for the second.

TTTATTATGC and TTTATTATGG are within error of each other in switch fluorescence ratio: 1.03 ± 0.026 for the first, 0.989 ± 0.032 for the second.

TTTATTGGCT and TTTATTGGGC are within error of each other in switch fluorescence ratio: 1 ± 0.051 for the first, 0.988 ± 0.053 for the second.

TTTATTGTCA and TTTATTTAAT are within error of each other in switch fluorescence ratio: 0.987 ± 0.029 for the first, 1.03 ± 0.035 for the second.

First: TTTATTTACT
Second: TTTATTTGCG
The switch fluorescence ratio of the first is higher: 1.011 ± 0.0036 for the first, 0.9875 ± 0.0067 for the second.

TTTATTTTTT and TTTCAAAAGA are the same in switch fluorescence ratio: 1 ± 0.039 for the first, 1 ± 0.048 for the second.

First: TTTCAAAGTA
Second: TTTCAACGGT
The switch fluorescence ratio of the first is lower: 0.9657 ± 0.0071 for the first, 1.009 ± 0.0075 for the second.

TTTCAATAGG and TTTCAATTTA are within error of each other in switch fluorescence ratio: 1.01 ± 0.024 for the first, 0.996 ± 0.011 for the second.

TTTCACACTC and TTTCACAGGA are within error of each other in switch fluorescence ratio: 1.02 ± 0.03 for the first, 1.03 ± 0.025 for the second.

TTTCACCGGG and TTTCACGAGC are within error of each other in switch fluorescence ratio: 1.16 ± 0.17 for the first, 0.993 ± 0.091 for the second.

TTTCACGGTA and TTTCAGAGTC are within error of each other in switch fluorescence ratio: 1.15 ± 0.11 for the first, 1.01 ± 0.064 for the second.

First: TTTCAGATGG
Second: TTTCAGCT
The switch fluorescence ratio of the first is higher: 1.006 ± 0.0093 for the first, 0.977 ± 0.013 for the second.

TTTCAGCTTA and TTTCAGGGGT are within error of each other in switch fluorescence ratio: 1.15 ± 0.15 for the first, 1.86 ± 0.81 for the second.

TTTCAGGTCC and TTTCAGGTTA are within error of each other in switch fluorescence ratio: 1.03 ± 0.065 for the first, 1.06 ± 0.012 for the second.

TTTCAGTCCC and TTTCAGTGCT are within error of each other in switch fluorescence ratio: 0.993 ± 0.052 for the first, 0.9947 ± 0.005 for the second.

TTTCATATGC and TTTCATCTTT are within error of each other in switch fluorescence ratio: 0.995 ± 0.073 for the first, 1.04 ± 0.078 for the second.

TTTCATGATC and TTTCATGGCT are within error of each other in switch fluorescence ratio: 1 ± 0.026 for the first, 1.01 ± 0.035 for the second.

TTTCATTCTC and TTTCCATGGA are within error of each other in switch fluorescence ratio: 0.991 ± 0.01 for the first, 0.984 ± 0.029 for the second.

TTTCCATTAA and TTTCCCCAAT are within error of each other in switch fluorescence ratio: 1 ± 0.044 for the first, 1.07 ± 0.063 for the second.

TTTCCCTGTT and TTTCCCTTCT are the same in switch fluorescence ratio: 1.05 ± 0.076 for the first, 1.05 ± 0.06 for the second.

TTTCCGACGG and TTTCCGGACG are within error of each other in switch fluorescence ratio: 1.57 ± 0.79 for the first, 1.02 ± 0.037 for the second.
